Tests used:
[1] = target: T1, IRISIN protein (human recombinant IRISIN) (human, UniProt Q8NAU1 1-191); experiment: BLI
T1 chain: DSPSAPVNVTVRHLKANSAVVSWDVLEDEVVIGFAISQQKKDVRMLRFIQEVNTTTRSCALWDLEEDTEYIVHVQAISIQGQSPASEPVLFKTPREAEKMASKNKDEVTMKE

[2] = target: T1, IRISIN protein (human recombinant …); experiment: BLI

- Kd [1]: 32.2 nM
- koff [2]: 0.00384 s⁻¹
B1: TRPC3 protein (provided by Chen Lei Laboratory, Peking University) (natural protein)
chain: MEGSPSLRRMTVMREKGRRQAVRGPAFMFNDRGTSLTAEEERFLDAAEYGNIPVVRKMLEESKTLNVNCVDYMGQNALQLAVGNEHLEVTELLLKKENLARIGDALLLAISKGYVRIVEAILNHPGFAASKRLTLSPCEQELQDDDFYAYDEDGTRFSPDITPIILAAHCQKYEVVHMLLMKGARIERPHDYFCKCGDCMEKQRHDSFSHSRSRINAYKGLASPAYLSLSSEDPVLTALELSNELAKLANIEKEFKNDYRKLSMQCKDFVVGVLDLCRDSEEVEAILNGDLESAEPLEVHRHKASLSRVKLAIKYEVKKFVAHPNCQQQLLTIWYENLSGLREQTIAIKCLVVLVVALGLPFLAIGYWIAPCSRLGKILRSPFMKFVAHAASFIIFLGLLVFNASDRFEGITTLPNITVTDYPKQIFRVKTTQFTWTEMLIMVWVLGMMWSECKELWLEGPREYILQLWNVLDFGMLSIFIAAFTARFLAFLQATKAQQYVDSYVQESDLSEVTLPPEIQYFTYARDKWLPSDPQIISEGLYAIAVVLSFSRIAYILPANESFGPLQISLGRTVKDIFKFMVLFIMVFFAFMIGMFILYSYYLGAKVNAAFTTVEESFKTLFWSIFGLSEVTSVVLKYDHKFIENIGYVLYGIYNVTMVVVLLNMLIAMINSSYQEIEDDSDVEWKFARSKLWLSYFDDGKTLPPPFSLVPSPKSFVYFIMRIVNFPKCRRRRLQKDIEMGMGNSKSRLNLFTQSNSRVFESHSFNSILNQPTRYQQIMKRLIKRYVLKAQVDKENDEVNEGELKEIKQDISSLRYELLEDKSQATEELAILIHKLSEKLNPSMLRCE
